Columns and labels:
[1] = molecular target: T1, human E-selectin on CHO-K1 transfectant cells (human, UniProt P16581 22-610); test: flow cytometry on CHO-K1 transfectants
T1 construct: whole, on cells; also called CHO-E Selectin; CHO-E selectin
T1 sequence (looked up): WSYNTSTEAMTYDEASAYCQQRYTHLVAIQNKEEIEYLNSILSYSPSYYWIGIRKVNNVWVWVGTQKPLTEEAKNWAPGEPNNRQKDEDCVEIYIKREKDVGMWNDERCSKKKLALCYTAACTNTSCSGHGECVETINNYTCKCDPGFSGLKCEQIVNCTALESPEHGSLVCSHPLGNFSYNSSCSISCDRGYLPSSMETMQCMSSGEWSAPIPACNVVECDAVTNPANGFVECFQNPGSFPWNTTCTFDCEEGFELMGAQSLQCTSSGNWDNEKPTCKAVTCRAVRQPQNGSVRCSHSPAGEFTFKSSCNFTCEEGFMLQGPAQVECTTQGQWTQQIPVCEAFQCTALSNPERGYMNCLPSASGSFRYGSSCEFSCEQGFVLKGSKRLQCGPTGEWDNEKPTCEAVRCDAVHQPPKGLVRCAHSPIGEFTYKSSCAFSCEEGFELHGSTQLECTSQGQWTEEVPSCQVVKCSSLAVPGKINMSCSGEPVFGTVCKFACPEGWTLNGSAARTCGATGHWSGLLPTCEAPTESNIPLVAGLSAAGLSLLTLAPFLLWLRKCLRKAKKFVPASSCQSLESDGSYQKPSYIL
Description: (§1) 2×10⁵ cells were incubated on ice for 30 minutes in FACS buffer (PBS containing 1% bovine serum albumin and 0.2% sodium azide) with 1 μg of test antibody or buffer alone. After incubation, cells were washed three times with FACS buffer and subsequently incubated for another 30 minutes with PE-conjugated donkey anti-human IgG F(ab′)2 fragment (Jackson ImmunoResearch). After washing three times with FACS buffer, relative cell fluorescence was analyzed by flow cytometry using a Cyan (DAKOCytomation).

[2] = molecular target: T2, human P-selectin on CHO-K1 transfectant cells (human, UniProt P16109 42-830); test: flow cytometry on CHO-K1 transfectants
T2 construct: whole, on cells; also called CHO-P selectin
T2 sequence (looked up): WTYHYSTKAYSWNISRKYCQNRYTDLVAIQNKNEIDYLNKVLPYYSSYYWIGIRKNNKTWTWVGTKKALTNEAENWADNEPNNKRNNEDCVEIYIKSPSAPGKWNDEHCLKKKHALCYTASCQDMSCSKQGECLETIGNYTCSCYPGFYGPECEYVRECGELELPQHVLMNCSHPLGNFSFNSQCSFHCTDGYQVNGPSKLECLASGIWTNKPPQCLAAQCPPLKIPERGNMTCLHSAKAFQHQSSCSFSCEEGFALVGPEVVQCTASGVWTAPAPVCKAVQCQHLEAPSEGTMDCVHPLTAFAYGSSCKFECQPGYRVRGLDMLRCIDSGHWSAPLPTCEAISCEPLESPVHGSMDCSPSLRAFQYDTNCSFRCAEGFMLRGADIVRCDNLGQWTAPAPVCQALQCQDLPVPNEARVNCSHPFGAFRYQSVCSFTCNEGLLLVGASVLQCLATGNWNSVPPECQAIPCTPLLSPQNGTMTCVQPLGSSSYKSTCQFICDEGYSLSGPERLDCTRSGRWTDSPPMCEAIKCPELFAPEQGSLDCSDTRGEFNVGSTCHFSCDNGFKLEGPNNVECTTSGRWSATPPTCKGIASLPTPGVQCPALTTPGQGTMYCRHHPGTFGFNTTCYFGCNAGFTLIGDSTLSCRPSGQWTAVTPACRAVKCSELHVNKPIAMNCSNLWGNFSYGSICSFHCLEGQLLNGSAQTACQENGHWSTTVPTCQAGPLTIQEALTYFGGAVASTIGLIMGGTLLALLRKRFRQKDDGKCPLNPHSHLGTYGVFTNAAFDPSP
Description: as §1

[3] = molecular target: T3, recombinant soluble human L-selectin (human, UniProt P14151 39-332); test: competition ELISA on coated soluble human L-selectin; competitor of biotinylated ChD3
T3 construct: extracellular domain; The residue numbers 1-279 count on the mature protein, not on the precursor
T3 sequence (looked up): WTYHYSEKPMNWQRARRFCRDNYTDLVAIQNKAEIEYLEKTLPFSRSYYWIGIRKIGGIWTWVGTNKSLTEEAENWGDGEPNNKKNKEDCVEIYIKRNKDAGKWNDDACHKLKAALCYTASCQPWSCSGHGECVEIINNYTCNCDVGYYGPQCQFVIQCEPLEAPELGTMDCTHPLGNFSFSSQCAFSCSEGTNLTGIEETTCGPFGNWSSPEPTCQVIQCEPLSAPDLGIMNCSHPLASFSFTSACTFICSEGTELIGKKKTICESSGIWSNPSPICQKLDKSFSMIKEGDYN
Description: ELISA plates were coated with 0.25 μg/ml soluble human L-selectin in 0.2 M sodium carbonate buffer (pH 9.4) and blocked with SuperBlock blocking buffer (Pierce). […] As controls, humanized anti-human L-selectin monoclonal antibody HuDREG55 (Co et al., Immunotechol. 4:253-266 (1999)) and humanized anti-human HLA-DR monoclonal antibody Hu1D10 (Kostelny et al., Int. J. Cancer 93:556-565 (2001)) were used. ELISA plates were incubated at room temperature for 2 hr. After washing the wells with Washing Buffer (PBS containing 0.1% Tween 20), 100 μl of 1 μg/ml HRP-conjugated streptavidin (Pierce) in ELISA buffer was added to each well. ELISA plates were incubated at room temperature for 60 min and washed with Washing Buffer. For color development, 100 μl/well of ABTS substrate was added. Color development was stopped by adding 100 μl/well of 2% oxalic acid. Absorbance was read at 415 nm.

[4] = molecular target: T2, human P-selectin on CHO-K1 transfectant …; test: flow cytometry on CHO-K1 transfectants; panel H read as CHO-P selectin
Description: as §1

B1: humanized anti-L-selectin antibody D3 (antibody, V domains shown)
VH: EVQLLESGGGLVQPGGSLRLSCAASGFSIGSYNMHWVRQAPGKGLEWVAGISGAGSRTAWYGAAVKGRATISRDNAKNTVYLQMNSLRAEDTAVYYCAKDYGGSGSPWYGWGAASWIDAWGQGTLVTVSS
VL: SSELTQDPAVSVALGQTVRITCSGGSYYGWYQQKPGQAPVTVIYDNDKRPSDIPSRFSGSKSGSTGSLTITGAQAEDEADYYCGSADSAYVGIFGGGTKLTVL
notes: Transiently expressed in 293-H cells; also called HuD3; humanized D3
[1]
  binding result: no binding (tested: 1 µg of test antibody)
[2]
  binding result: no binding (tested: 1 µg of test antibody)
[3]
  IC50: 2.9 µg/mL

B2: chicken-human chimeric anti-L-selectin antibody D3 (antibody, V domains shown)
VH: AVTLDESGGGLQTPGGALSLVCRASGFSIGSYNMHWVRQAPGKGLEWVAGISGAGSRTAWYGAAVKGRATISRDNGQSTVRLQLNNLRAEDTGTYYCAKDYGGSGSPWYGWGAASWIDAWGHGTEVIVSS
VL: ALTQPASVSANPGETVKITCSGGSYYGWYQQKSPGSAPVTVIYDNDKRPSDIPSRFSGSKSGSTGTLTITGVQAEDEAVYFCGSADSAYVGIFGAGTTLTVL
notes: Transiently expressed in 293-H cells; also called ChD3; chimeric D3
[1]
  binding result: no binding (tested: 1 µg of test antibody)
[4]
  binding result: no binding (tested: 1 µg of test antibody)
[3]
  IC50: 3.4 µg/mL

— US20040260068A1 (published 2004)
